Results taken from patent US20120282279A1 (COVX TECHNOLOGIES IRELAND, published 2012).

Target: FGF21 cell surface receptor composed of FGFR1c and β-Klotho (on the cells of the bioactivity assays) (UniProt P16092 22-822; Q99N32 1-1043, limits assumed)
Assay: cell-based or functional assay

FGF21 cell surface receptor composed of FGFR1c and β-Klotho (on the cells of the bioactivity assays), sequence (P16092 22-822 limits assumed, chain 1 of 2): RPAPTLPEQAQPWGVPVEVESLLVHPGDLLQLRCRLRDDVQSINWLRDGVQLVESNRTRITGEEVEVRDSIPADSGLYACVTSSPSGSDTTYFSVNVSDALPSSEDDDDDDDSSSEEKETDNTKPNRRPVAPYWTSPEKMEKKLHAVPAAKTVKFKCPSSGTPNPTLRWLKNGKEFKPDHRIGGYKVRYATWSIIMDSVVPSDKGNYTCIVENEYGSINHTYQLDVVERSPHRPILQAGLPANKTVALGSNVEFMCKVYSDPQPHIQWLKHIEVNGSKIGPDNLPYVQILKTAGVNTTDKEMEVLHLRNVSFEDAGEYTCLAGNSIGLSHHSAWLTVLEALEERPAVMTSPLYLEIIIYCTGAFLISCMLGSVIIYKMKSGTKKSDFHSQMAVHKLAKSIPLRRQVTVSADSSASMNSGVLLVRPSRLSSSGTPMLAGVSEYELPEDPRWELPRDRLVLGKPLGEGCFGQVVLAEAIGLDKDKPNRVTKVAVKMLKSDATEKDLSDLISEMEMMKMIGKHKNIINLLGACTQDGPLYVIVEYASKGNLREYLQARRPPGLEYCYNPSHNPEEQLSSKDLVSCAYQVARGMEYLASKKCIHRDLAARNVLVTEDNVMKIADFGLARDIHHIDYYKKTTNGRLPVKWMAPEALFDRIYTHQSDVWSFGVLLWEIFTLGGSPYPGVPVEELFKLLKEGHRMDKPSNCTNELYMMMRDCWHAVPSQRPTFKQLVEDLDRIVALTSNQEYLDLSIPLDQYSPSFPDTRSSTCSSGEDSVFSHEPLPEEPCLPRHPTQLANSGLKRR
FGF21 cell surface receptor composed of FGFR1c and β-Klotho (on the cells of the bioactivity assays), sequence (Q99N32 whole entry, chain 2 of 2): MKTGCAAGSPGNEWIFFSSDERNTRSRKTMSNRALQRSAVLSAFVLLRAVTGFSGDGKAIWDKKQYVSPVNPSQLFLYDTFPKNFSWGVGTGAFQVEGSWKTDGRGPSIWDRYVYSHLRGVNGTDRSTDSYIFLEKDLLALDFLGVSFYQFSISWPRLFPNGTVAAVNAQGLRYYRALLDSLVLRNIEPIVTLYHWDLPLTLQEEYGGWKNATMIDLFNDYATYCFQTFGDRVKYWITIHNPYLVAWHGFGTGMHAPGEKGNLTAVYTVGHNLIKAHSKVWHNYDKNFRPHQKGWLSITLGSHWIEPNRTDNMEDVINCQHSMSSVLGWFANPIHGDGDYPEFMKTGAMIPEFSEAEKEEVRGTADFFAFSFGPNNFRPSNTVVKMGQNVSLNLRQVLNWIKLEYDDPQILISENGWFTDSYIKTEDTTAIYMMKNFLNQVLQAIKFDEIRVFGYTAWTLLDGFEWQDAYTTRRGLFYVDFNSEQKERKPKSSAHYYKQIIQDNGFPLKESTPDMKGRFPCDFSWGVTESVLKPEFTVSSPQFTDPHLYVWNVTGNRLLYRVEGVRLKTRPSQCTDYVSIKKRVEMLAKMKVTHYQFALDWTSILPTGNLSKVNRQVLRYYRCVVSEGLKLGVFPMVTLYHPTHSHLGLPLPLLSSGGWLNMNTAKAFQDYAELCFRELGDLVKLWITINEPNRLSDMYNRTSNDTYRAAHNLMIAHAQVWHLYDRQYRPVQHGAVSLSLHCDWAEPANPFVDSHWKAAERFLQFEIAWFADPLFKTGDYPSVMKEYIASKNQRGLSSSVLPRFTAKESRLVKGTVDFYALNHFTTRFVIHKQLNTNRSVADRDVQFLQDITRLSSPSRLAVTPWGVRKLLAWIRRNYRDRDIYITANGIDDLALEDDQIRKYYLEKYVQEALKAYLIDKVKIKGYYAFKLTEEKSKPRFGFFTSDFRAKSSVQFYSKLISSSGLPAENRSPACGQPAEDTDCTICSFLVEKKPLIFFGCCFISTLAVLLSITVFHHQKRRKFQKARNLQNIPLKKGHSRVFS

B1: FGF21ΔH (ligand)
chain: PIPDSSPLLQFGGQVRQRYLYTDDAQQTEAHLEIREDGTVGGAADQSPESLLQLKALKPGVIQILGVKTSRFLCQRPDGALYGSLHFDPEACSFRELLLEDGYNVYQSEAHGLPLHLPGNKSPHRDPAPRGPARFLPLPGLPPAPPEPPGILAPQPPDVGSSDPLSMVGPSQGRSPSYAS
Question: With B1 as the binder, how does the “Glut1 Taqman unconjugated Protein EC50” value read?
Answer: 2.3 nM
